These results are taken from patent US20160207996A1 (ARGEN X N V, published 2016).

Test [1] addresses T1, Nt-GCGR-hFc (human, UniProt P47871 26-136).
T1 construct: domain: N-terminal domain; also called Nt-GCGR-Fc; recombinant N-terminal domain of GCGR; not shown: hFc
Kind of test: scFv binding ELISA, periplasmic extract on coated Nt-GCGR.

Test [2] addresses human Nav1.7 (full length) (human) (UniProt Q15858). Kind of test: cell-based or functional assay.

T1 sequence (P47871 26-136): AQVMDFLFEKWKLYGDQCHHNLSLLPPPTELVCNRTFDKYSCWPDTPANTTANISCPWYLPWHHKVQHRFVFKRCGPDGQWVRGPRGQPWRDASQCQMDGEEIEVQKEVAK

B1: scFv D6 (scFv, part only; not given: GS linker, not shown: small tags and cut ends)
scFv, part: QLQLVESGGGLVQPGGSLRLSCAASGGIFDVMGWYHQAPGKQRGLVASITPAGSTNYADSVKGRFTISRDNAKNTVYLQMNSLKPDDTGVYYCYADGIDPRYGGDEFWGQGTQVTVSSSYELTQSPSVSVALRQTAKITCGGDNIGSKSAQWYQQKPGQAPVLVIYAGSRRPSGIPERFSGSNSGNTATLTVSGAQAEDEANYSCQVWDSSANASVFGGGTHLTVLG
As to B1, in test [1], the ScFv binding ELISA signal is 1.09.

B2: scFv D8 (scFv)
chain: EVQLVESEGGSVQPGDSLRLSCAASGFSFSNAGMSWVRQAPGKGLEWVSAIIPGGYAPYYADSVKGRFTISRDNAKNTVSLQMNSLKPEDTALYYCAKYGGNWDLEVWGQGTLVTVSSQSALTQPPSVSGTLGKTVTISCTGTSSDIGGYNSVSWYQQLPGTAPKLLIYEVNKRASGIPDRFSGSKSGDTASLTISGLQSADEADYYCASYRNTRKSVFGGGTHLTVLG
Consider B2, for which the “ScFv binding ELISA signal” value in test [1] amounted to 1.14.

B3: scFv B5 (scFv, part only; not given: GS linker, not shown: small tags and cut ends)
scFv, part: EVQLVQPGAELRNPGASVKVSCKASGYTFTSHYIDWVRQAPGQGLEWMGRIDPEDGGTTYEQKFQGRVTFTADTSTSTVYVELSSLRSEDTAVYYCARSTEIPTIRYYGMDYWGKGTPVTVSSQSVLTQPSAVSVSLGQTARITCQGGSLGSYGANWHQQKPGQAPVLLIYGDNSRPSGIPERFSGSKSGGTATLTISGAQAEDEADYYCQSFDYSGNAVFGGGTHLTVLG
Take B3: the ScFv binding ELISA signal in test [1] stood at 0.508.

B4: 9A6 (antibody, V domains shown)
VH: EVQLVQPGAELRNPGASVKVSCKASGYTYTSAYIVWVRQAPGEGLEWMGRIDPEDGGTKYAQKFQGRVTFTADTSTNTAYVELSSLRSDDTAVYYCTAGLDYWGKGTLVTVSS
VL: ATMLTQSPGSLSVVPGESASISCKASQSLVHSDGMTYLYWLQQKPGQSPQRLIYRVSRRGSGVPDRFTGSGSGTDFTLNISDMKAEDAGVYYCAQDTYYPYSFGSGTSVEIK
In test [2], B4 had a % inhibition of inward current following P02 voltage protocol, 10 µg/ml of 16.9%; a % inhibition of inward current following P02 voltage protocol, 25 µg/ml of 28%; a % inhibition of inward current following P02 voltage protocol, 100 µg/ml of 36.2%.

B5: scFv D5 (scFv)
chain: EVQVQESGGGLVQPGGSLRLSCATSGFTFSNYYMSWVRQAPGKGPEWVSSIYSDLSTTYYADSVKGRFTISRDRAKNTLYLQMNSLKSEDTAVYYCARLSTVAGVDYWGKGTLVTVSSSYELTQSPSVSVALRQTAKITCGGNNIGDKSAQWYQQKPDQAPVLVIYADNRRPSEIPERFSGSNSGDTATLTISGAQAEDEADYYCQVWDSGANAAVFGGGTHLTVLG
Consider B5, for which, in test [1], the “ScFv binding ELISA signal” value came out at 0.268.

B6: scFv A1 (scFv)
chain: QVQLVESGGGLVQPGGSLRLSCAASGFTFSSYAMTWVRQAPGKGLEWVSTITSNGDSTSYADSVKGRFTISRDNAKNTLYLQMDSLKPEDTAVYYCAKLGDGSYWFYYYGMDYWGQGTQVTVTSSSYELTQSSAVSLSLGQTARITCQGDNLGRYYVNWYQQKPGQAPVQVIYGNSNRPSGIPERFSGSSSGGTATLTISGAQAEDEADYYCQTYENSGVNLVFGGGTKLTVLG
As to B6, the “ScFv binding ELISA signal” value in test [1] was determined as 2.18.

B7: scFv D7 (scFv)
chain: QVQLVESGGGLVQPGGSLRLSCAASGFTFSWYAMSWVRQGPGKGLEWVSAINGGGGSTSYEDSVKGRFTISRDNAKNTLYLEMNSLKPEDTAVYYCARYSDGYSGSYTYTDMDYWGKGTLVTVSSQAVVTQEPSLSVSPGGTVTLTCGLSSGSVTSSNYPVWYQQTPGQAPHLLIYNTNTRHSGVPSRFSGFISGNKAALTITGAQPEDEADYYCASYRRSGRAVFGGGTHLTVLG
On to B7, for which, in test [1], the “ScFv binding ELISA signal” value amounted to 0.1.

B8: scFv C12 (scFv, part only; not given: GS linker, not shown: small tags and cut ends)
scFv, part: ELQVVESGGGLVPGGSLRLSCAASGFRVSVNAMSWVRQAPGKGLEWVSHIGSGGITGYADSVKGRFTISRDSAKNTLYLQMNSLKPEDTAVYYCTKRSSGYAWGQGTQVTVSSQAGLTQLPSVSGSPGQKITISCTGSSNNIGAGYSVQWFQQVPGSPPRLLIDGATNRDSGVPDRFSDSRSGSSASLTITGLQAEDEADYYWMLQQPQGVLCSAEGPI
For B8, the ScFv binding ELISA signal in test [1] is 2.56.
